Ends that are not written are not given here. * marks the point of attachment. Biotin = O=C1N[C@H]2[C@H](CS[C@H]2CCCCC(=O)*)N1

Sequence of purified human PCNA (P12004 whole entry): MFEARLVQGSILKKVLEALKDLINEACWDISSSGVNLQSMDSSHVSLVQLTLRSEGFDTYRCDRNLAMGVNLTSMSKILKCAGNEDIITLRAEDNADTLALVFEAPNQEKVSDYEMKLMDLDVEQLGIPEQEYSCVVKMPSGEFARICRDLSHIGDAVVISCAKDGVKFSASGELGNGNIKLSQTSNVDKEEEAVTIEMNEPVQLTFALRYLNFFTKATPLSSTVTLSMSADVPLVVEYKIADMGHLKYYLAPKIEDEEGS

This assay addresses purified human PCNA (human, UniProt P12004 1-261). The assay is described as follows: ELISA. Background: In an ELISA, binding on a coated surface is turned into a signal by an enzyme label.
Regarding Biotin-SGSGDPDCGCSRRGCVLRMIRRRN (cysteine pairing not given here) [pep102, biotinylated synthetic peptide], the binding result is “binds”.

Consider Biotin-SGSGKLFNLHINSAVLQKKITDYF [pogo, biotinylated peptide derived from the Drosophila Pogo transposase], for which the binding result is listed as “binds”.

Take Biotin-SGSGDPLWCQSAVFLIRMWLRSRN [pep103, biotinylated synthetic peptide]: the binding result was “binds”.

Values taken from article PMC2699888 (Oncogene, 2006).
